# Laboratory results published in patent US20250263504A1 (Takeda / Millennium, published 2025).
# “And” between values parts separate entries of the source, which are not always exact repeats. Equal values may be shown once.
# T1: Factor XIIa (FXIIa) (UniProt P00748 20-372; P00748 373-615, limits assumed)
# T1 construct: the description speaks of human FXIIa; also called active Factor XII
# T1 sequence (looked up) 1: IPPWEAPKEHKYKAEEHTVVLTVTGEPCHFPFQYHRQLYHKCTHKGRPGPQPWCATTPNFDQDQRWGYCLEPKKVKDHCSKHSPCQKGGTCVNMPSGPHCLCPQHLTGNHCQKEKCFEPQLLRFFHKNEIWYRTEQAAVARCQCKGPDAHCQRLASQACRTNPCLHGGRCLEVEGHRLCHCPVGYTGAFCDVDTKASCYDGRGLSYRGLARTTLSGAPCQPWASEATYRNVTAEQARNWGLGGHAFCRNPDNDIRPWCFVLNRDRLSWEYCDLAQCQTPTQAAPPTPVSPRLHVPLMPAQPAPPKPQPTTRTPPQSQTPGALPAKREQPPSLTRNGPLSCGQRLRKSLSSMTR
# T1 sequence (looked up) 2: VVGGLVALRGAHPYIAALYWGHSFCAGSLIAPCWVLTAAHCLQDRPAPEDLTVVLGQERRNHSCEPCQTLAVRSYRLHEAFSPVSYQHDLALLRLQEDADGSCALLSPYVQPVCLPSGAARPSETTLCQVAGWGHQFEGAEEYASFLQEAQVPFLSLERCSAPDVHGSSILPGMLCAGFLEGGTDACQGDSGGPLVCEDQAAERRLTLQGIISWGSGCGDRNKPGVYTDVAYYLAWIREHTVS
# B1: DX-2930 (antibody, human IgG1, kappa, V domains shown)
# VH: EVQLLESGGGLVQPGGSLRLSCAASGFTFSHYIMMWVRQAPGKGLEWVSGIYSSGGITVYADSVKGRFTISRDNSKNTLYLQMNSLRAEDTAVYYCAYRRIGVPRRDEFDIWGQGTMVTVSS
# VL: DIQMTQSPSTLSASVGDRVTITCRASQSISSWLAWYQQKPGKAPKLLIYKASTLESGVPSRFSGSGSGTEFTLTISSLQPDDFATYYCQQYNTYWTFGQGTKVEIKR
# notes: Anti-pKal IgG1; also called H03
# B2: 620I-X0177-A01 (bispecific antibody, human IgG1, kappa)
# heavy: not shown
# light: DIQMTQSPSTLSASVGDRVTITCRASQSISSWLAWYQQKPGKAPKLLIYKASTLESGVPSRFSGSGSGTEFTLTISSLQPDDFATYYCQQYNTYWTFGQGTKVEIKRTVAAPSVFIFPPSDEQLKSGTASVVCLLNNFYPREAKVQWKVDNALQSGNSQESVTEQDSKDSTYSLSSTLTLSKADYEKHKVYACEVTHQGLSSPVTKSFNRGEC
# notes: 620I-X0136-D12 with germlined, gene-optimized scFv and VH44-VL100 disulfide; also called 620I-X0173-A11; 620I-X0136-D12 with H44/L100 engineered disulfide bond
# B3: 620I-X0179-C01 (bispecific antibody, human IgG1, kappa)
# heavy: not shown
# light: B2 light
# notes: 620I-X0177-A01 with IgG C-terminal Lys changed to Gly; also called 620I-R0052-C01; 620I-X179-C01
# B4: 620I-X0179-G05 (bispecific antibody, human IgG1, kappa)
# heavy: not shown
# light: B2 light
# notes: 620I-X0177-C01 with IgG C-terminal Lys changed to Gly; also called 620I-R0052-G01; 620I-X179-G05
# B5: 620I-X0180-C11 (bispecific antibody, human IgG1, kappa)
# heavy: not shown
# light: B2 light
# notes: 620I-X0177-G01 with IgG C-terminal Lys changed to Gly; also called 620I-R0052-C03; 620I-X180-C11
# B6: 620I-X0180-G03 (bispecific antibody, human IgG1, kappa)
# heavy: not shown
# light: B2 light
# notes: 620I-X0177-E01 with IgG C-terminal Lys changed to Gly; also called 620I-R0052-G03; 620I-X180-G03
# B7: 620I-X0179-E05 (bispecific antibody, human IgG1, kappa)
# heavy: not shown
# light: B2 light
# notes: 620I-X0177-C01 with IgG C-terminal Lys deleted; also called 620I-R0052-E01
# B8: 620I-X0179-A09 (bispecific antibody, human IgG1, kappa)
# heavy: not shown
# light: B2 light
# notes: 620I-X0177-A01 with IgG C-terminal Lys deleted; also called 620I-R0052-A01; 620I-X179-A09
# B9: 620I-X0180-A05 (bispecific antibody, human IgG1, kappa)
# heavy: not shown
# light: B2 light
# notes: 620I-X0177-G01 with IgG C-terminal Lys deleted; also called 620I-R0052-A03; 620I-X180-A05
# B10: 620I-X0180-E07 (bispecific antibody, human IgG1, kappa)
# heavy: not shown
# light: B2 light
# notes: 620I-X0177-E01 with IgG C-terminal Lys deleted; also called 620I-R0052-E03; 620I-X180-E07
# B11: 620I-X0139-D12 (bispecific antibody)
# heavy: not shown
# light: B2 light
# notes: also called 620I-X139-D12
# B12: 620I-X0139-E05 (bispecific antibody)
# heavy: not shown
# light: B2 light
# notes: also called 620I-X139-E05
# B13: 620I-X0139-G12 (bispecific antibody)
# heavy: not shown
# light: B2 light
# notes: also called 620I-X139-G12
# B14: 620I-X0142-A02 (bispecific antibody)
# heavy: not shown
# light: B2 light
# notes: also called 620I-X142-A02
# B15: 620I-X0142-A04 (bispecific antibody)
# heavy: not shown
# light: B2 light
# notes: also called 620I-X142-A04
# B16: 620I-X0142-A05 (bispecific antibody)
# heavy: not shown
# light: B2 light
# notes: also called 620I-X142-A05
# B17: 620I-X0142-B02 (bispecific antibody)
# heavy: not shown
# light: B2 light
# notes: also called 620I-X142-B02
# B18: 620I-X0142-B07 (bispecific antibody)
# heavy: not shown
# light: B2 light
# notes: also called 620I-X142-B07
# B19: 620I-X0142-D04 (bispecific antibody)
# heavy: not shown
# light: B2 light
# notes: also called 620I-X142-D04
# B20: 620I-X0142-E02 (bispecific antibody)
# heavy: not shown
# light: B2 light
# notes: also called 620I-X142-E02
# B21: 620I-X0142-B11 (bispecific antibody, human IgG1, kappa)
# heavy: not shown
# light: B2 light
# notes: also called 620I-X142-B11
# B22: 620I-X0138-B01 (bispecific antibody, human IgG1, kappa)
# heavy: not shown
# light: B2 light
# notes: also called 620I-X138-B01
# B23: X0122-A01 (bispecific antibody)
# heavy: not shown
# light: B2 light
# notes: also called X122-A01
# B24: X0120-A01 (bispecific antibody)
# heavy: not shown
# light: B2 light
# notes: also called X120-A01
# B25: X0121-E01 (bispecific antibody)
# heavy: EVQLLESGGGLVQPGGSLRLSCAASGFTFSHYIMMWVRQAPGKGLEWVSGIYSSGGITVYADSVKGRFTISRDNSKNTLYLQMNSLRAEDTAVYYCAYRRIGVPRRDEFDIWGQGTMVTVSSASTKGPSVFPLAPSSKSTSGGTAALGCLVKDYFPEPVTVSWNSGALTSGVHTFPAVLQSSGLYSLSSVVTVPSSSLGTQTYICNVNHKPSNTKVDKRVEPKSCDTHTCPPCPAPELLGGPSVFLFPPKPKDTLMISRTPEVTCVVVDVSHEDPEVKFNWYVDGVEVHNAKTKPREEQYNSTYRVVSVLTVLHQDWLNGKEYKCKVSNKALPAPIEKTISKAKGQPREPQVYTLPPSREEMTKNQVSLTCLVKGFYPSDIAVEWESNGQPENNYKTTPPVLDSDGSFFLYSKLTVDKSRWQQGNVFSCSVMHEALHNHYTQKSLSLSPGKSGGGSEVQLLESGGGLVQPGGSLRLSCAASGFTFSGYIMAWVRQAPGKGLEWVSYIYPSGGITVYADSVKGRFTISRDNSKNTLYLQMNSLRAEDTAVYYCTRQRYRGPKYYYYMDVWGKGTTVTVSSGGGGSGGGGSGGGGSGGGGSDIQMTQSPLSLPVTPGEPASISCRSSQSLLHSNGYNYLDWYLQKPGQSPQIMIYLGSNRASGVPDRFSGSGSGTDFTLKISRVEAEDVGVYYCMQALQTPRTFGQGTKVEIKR
# light: B2 light
# notes: also called X121-E01
# B26: X0122-C01 (bispecific antibody)
# heavy: not shown
# light: B2 light
# notes: also called X122-C01
# Target: T2, plasma kallikrein (pKal) (UniProt P03952 20-390; P03952 391-638, limits assumed)
# T2 construct: the description speaks of human pKal; also called active pKal
# Assay: pKal enzyme inhibition, Ki,app, control
# T2 sequence (P03952 20-390 limits assumed, form in doubt, chain 1 of 2): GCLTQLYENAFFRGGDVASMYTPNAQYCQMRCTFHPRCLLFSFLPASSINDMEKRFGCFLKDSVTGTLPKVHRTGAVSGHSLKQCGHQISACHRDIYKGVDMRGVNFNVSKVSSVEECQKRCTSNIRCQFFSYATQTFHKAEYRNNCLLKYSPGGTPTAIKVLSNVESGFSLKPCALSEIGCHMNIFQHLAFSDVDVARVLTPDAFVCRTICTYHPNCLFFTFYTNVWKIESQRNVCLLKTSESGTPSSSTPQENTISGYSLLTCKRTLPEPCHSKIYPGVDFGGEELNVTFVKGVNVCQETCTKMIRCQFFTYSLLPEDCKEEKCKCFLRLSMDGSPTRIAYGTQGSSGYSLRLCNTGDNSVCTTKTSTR
# T2 sequence (P03952 391-638 limits assumed, form in doubt, chain 2 of 2): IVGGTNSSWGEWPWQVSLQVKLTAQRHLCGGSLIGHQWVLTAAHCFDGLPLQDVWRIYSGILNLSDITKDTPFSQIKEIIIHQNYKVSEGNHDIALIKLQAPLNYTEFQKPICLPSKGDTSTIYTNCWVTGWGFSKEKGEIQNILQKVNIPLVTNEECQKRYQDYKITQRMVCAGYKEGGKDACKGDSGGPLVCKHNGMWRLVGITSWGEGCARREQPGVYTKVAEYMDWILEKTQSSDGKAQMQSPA
row,Binder,Ki
1,B1,0.127 nM and 0.131 nM and 0.151 nM

# Target: T2, plasma kallikrein (pKal)
# Assay: enzyme inhibition of human pKal: rate (F/s) against antibody concentration (0 to 10 nM), fit to the tight-binding equation printed in the panel; K is Ki,app. Columns are coefficient, std. error, t, P. The unit is taken from the concentration axis '[nM]' [CONT'D) B. (right panel]
row,Binder,Ki
1,B2,0.39 nM

# Target: T2, plasma kallikrein (pKal)
# Assay: pKal enzyme inhibition, Ki,app
row,Binder,Ki
1,B3,0.243 nM
2,B4,0.226 nM
3,B5,0.232 nM
4,B6,0.208 nM
5,B7,0.203 nM
6,B8,0.225 nM
7,B9,0.254 nM
8,B10,0.243 nM

# Target: T2, plasma kallikrein (pKal)
# Assay: enzyme inhibition, corrected Ki,app, control plate 1
row,Binder,Ki
1,B1,0.16 nM

# Target: T2, plasma kallikrein (pKal)
# Assay: enzyme inhibition, corrected Ki,app, control plate 2
row,Binder,Ki
1,B1,0.138 nM

# Target: T1, Factor XIIa (FXIIa)
# Assay: enzyme inhibition: rate (F/s) against antibody concentration (0 to about 9000 pM), fit to the tight-binding inhibitor equation; K is Ki,app. FXIIa as the enzyme follows from the text; it is not printed in the panel [right panel]
row,Binder,Ki
1,B2,0.0726 nM

# Target: T1, Factor XIIa (FXIIa)
# Assay: enzyme inhibition, corrected Ki,app
row,Binder,Ki
1,B11,0.383 nM
2,B12,0.172 nM
3,B13,0.252 nM
4,B14,0.063 nM
5,B15,1.23 nM
6,B16,2.14 nM
7,B17,0.955 nM
8,B18,0.775 nM
9,B19,0.414 nM
10,B20,0.186 nM
11,B21,7.72 nM
12,B22,6.63 nM

# Target: T2, plasma kallikrein (pKal)
# Assay: enzyme inhibition, corrected Ki,app
row,Binder,Ki
1,B11,0.428 nM
2,B12,0.196 nM
3,B13,0.276 nM
4,B14,0.152 nM
5,B15,0.162 nM
6,B16,0.16 nM
7,B17,0.156 nM
8,B18,0.224 nM
9,B19,0.17 nM
10,B20,0.162 nM
11,B21,0.622 nM
12,B22,0.169 nM

# Target: T1, Factor XIIa (FXIIa)
# Assay: enzyme inhibition, peptide substrate, tight-binding fit, Ki,app
# Procedure: (§1) Varying concentrations of the bispecific antibodies were incubated with individual FXIIa and pKal samples, and the ability of these proteases to cleave a peptide substrate was monitored over time by measuring changes in the fluorescence of a chemical moiety covalently attached to the peptide substrate. Slopes of this kinetic data are equivalent to enzymatic proteolytic rates, which are then plotted against the concentration of the inhibitor. The resulting plots are then fit to a tight binding inhibitor equation (Equation 1) by nonlinear regression to obtain apparent inhibition constants (Kᵢ^app).
row,Binder,Ki
1,B23,6.05 nM
2,B24,0.0515 nM
3,B25,0.611 nM
4,B26,5.69 nM

# Target: T2, plasma kallikrein (pKal)
# Assay: as above
# Procedure: as §1
row,Binder,Ki
1,B23,0.169 nM
2,B24,0.138 nM
3,B25,0.159 nM
4,B26,0.161 nM

# Target: T1, Factor XIIa (FXIIa)
# Assay: FXIIa enzyme inhibition, Ki,app
row,Binder,Ki
1,B3,0.108 nM
2,B4,0.052 nM
3,B5,0.14 nM
4,B6,0.071 nM
5,B7,0.099 nM
6,B8,0.09 nM
7,B9,0.116 nM
8,B10,0.092 nM

# Target: T1, Factor XIIa (FXIIa)
# Assay: enzyme inhibition assay, apparent Ki
row,Binder,Ki
1,B2,0.073 nM

# Target: T2, plasma kallikrein (pKal)
# Assay: enzyme inhibition assay, apparent Ki
row,Binder,Ki
1,B2,0.389 nM

# Target: T2, plasma kallikrein (pKal)
# Assay: enzyme inhibition of human pKal: rate (F/s) against antibody concentration (0 to 10 nM), fit to the tight-binding equation printed in the panel; K is Ki,app. Columns are coefficient, std. error, t, P. The unit is taken from the concentration axis '[nM]' [CONT'D) B. (left panel]
row,Binder,Ki
1,B1,0.202 nM
